Laboratory results from US20220380407A1 (WASHINGTON UNIVERSITY, published 2022).
Where two headings read alike, the source gives them in different places. Positions of bridges follow the written chain, without caps; N, C: chain ends. *: point of attachment. X2 = 1‑(ethylsulfonyl)piperidin‑4‑yl carbamate, CCS(=O)(=O)N1CCC(OC(=O)*)CC1; kbt = C-terminal Arg ketobenzothiazole

Tests used:
Assay in all cases: cell-based or functional assay
[1] = biological target: T1, activated hepsin (#4776-SE-010, R&D Systems) (UniProt P05981 45-417, limits assumed)
T1 sequence (P05981 45-417 limits assumed): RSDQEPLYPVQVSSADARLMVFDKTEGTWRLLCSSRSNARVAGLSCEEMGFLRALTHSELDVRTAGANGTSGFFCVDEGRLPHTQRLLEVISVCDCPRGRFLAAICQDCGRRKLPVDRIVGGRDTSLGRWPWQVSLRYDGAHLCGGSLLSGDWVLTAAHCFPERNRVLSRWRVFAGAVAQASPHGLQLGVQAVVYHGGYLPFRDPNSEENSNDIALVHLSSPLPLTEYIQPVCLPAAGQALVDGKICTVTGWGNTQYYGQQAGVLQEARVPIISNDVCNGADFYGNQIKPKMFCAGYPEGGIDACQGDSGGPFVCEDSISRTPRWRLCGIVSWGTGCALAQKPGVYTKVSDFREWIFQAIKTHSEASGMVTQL

[2] = biological target: T2, recombinant N-terminal His-tag HGFA serine protease domain (UniProt Q04756 373-655)
T2 sequence (looked up): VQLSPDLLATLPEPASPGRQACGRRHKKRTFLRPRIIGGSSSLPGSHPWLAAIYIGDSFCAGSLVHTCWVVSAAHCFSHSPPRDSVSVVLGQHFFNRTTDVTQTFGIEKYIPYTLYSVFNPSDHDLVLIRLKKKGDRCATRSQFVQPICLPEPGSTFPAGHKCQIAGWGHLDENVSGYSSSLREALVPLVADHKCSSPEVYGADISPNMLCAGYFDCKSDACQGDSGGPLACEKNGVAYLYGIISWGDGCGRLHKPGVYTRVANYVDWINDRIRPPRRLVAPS

[3] = biological target: T3, matriptase (#3946-SE-010, R&D Systems) (UniProt Q9Y5Y6 615-855)
T3 sequence (looked up): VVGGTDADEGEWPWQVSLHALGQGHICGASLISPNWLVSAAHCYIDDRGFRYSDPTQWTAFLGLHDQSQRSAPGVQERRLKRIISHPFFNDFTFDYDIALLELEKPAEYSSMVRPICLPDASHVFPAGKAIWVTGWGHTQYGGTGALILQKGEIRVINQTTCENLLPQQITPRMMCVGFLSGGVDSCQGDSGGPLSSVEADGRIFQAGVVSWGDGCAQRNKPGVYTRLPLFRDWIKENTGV

human TMPRSS2 [4] = biological target: T4, human TMPRSS2 (human, UniProt O15393 1-492)
T4 sequence (O15393 whole entry): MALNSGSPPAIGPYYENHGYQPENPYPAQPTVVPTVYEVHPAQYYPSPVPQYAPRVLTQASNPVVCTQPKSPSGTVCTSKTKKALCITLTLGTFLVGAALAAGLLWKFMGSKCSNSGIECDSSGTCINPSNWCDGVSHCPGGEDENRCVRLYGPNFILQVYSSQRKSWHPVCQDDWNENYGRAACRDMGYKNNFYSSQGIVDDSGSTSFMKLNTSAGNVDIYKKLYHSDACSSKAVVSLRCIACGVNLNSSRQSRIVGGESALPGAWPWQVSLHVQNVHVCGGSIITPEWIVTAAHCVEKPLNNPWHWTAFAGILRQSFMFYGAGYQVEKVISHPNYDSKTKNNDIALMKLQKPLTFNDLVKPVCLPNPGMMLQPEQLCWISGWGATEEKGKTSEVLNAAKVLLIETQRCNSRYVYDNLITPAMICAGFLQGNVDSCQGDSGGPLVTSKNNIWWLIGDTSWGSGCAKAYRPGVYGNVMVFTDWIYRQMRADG

[5] = biological target: T5, KLK5 (#1108-SE-010, R&D Systems) (UniProt Q9Y337 23-293, limits assumed)
T5 sequence (looked up): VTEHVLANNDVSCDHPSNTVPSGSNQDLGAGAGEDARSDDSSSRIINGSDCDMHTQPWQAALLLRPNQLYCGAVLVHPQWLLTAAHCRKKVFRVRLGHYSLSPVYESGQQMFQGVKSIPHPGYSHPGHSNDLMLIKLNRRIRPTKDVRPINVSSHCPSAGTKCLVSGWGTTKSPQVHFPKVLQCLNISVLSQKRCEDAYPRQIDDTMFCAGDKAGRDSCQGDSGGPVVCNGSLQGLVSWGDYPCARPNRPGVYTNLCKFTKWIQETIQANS

[6] = biological target: T6, Factor Xa (#1063-SE-010, R&D Systems) (UniProt P00742 41-488, limits assumed)
T6 sequence (P00742 41-488 limits assumed): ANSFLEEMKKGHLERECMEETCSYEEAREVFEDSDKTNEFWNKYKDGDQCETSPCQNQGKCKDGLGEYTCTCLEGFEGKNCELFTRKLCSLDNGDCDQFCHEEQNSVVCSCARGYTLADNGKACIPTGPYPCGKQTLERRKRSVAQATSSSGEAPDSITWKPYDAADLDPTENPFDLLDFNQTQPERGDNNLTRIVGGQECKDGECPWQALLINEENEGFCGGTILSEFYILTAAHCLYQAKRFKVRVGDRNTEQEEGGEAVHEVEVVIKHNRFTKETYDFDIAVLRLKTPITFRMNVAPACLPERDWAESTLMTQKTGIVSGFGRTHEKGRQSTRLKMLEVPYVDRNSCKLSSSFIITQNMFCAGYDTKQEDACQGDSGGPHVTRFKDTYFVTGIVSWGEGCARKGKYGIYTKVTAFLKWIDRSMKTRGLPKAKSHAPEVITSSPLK

[7] = biological target: T1, activated hepsin (#4776-SE-010, R&D …); remark: listed apart in the source
[8] = biological target: T2, recombinant N-terminal His-tag HGFA …; remark: listed apart in the source
[9] = biological target: T7, recombinant thrombin (#1473-SE-010, R&D Systems) (UniProt P00734 44-622)
[10] = biological target: T3, matriptase (#3946-SE-010, R&D Systems); remark: listed apart in the source
human TMPRSS2 [11] = biological target: T4, human TMPRSS2; remark: listed apart in the source
[12] = biological target: T6, Factor Xa (#1063-SE-010, R&D Systems); remark: listed apart in the source
[13] = biological target: T1, activated hepsin (#4776-SE-010, R&D …); remark: listed apart in the source
[14] = biological target: T2, recombinant N-terminal His-tag HGFA …; remark: listed apart in the source
[15] = biological target: T7, recombinant thrombin (#1473-SE-010, R&D …); remark: listed apart in the source
[16] = biological target: T3, matriptase (#3946-SE-010, R&D Systems); remark: listed apart in the source

Row | Binder | Hepsin IC50 [1] [nM] | HGFA IC50 [2] [nM] | Matriptase IC50 [3] [nM] | Calu-3 EC50 (human TMPRSS2 [4]) [nM] | KLK5 IC50 [5] [nM] | Factor Xa* (IC50 nM) [6] [nM] | Hepsin (IC50 nM) [7] [nM] | HGFA (IC50 nM) [8] [nM] | Thrombin* (IC50 nM) [9] [nM] | Matriptase (IC50 nM) [10] [nM] | IC50, cell-based TMPRSS2 fluorogenic enzyme inhibition assay (human TMPRSS2 [11]) [nM] | Factor Xa IC50 [12] [nM] | Hepsin IC50 [13] [nM] | HGFA IC50 [14] [nM] | Thrombin IC50 [15] [nM] | Matriptase IC50 [16] [nM]
1 | Ac-DLKR-kbt (lactam 1-3; not fully specified; printed as Cyclo(DLK)R-kbt; also: N-terminal acetyl described as 6-acetamido) [Cyclo(DLK)R-kbt, VD2173] | 10 | 5260 | 1.4 | 104 | 193 | 564 | 8.4 | 3590 | 700 | 0.28 | 6.9 | – | – | – | – | –
2 | Ac-SKLR-{kbt-Val-NH2} [Ac-SKLR kbt V-amide, ZFH7116] | 0.5 | 26 | 11 | 307 | 137 | – | – | – | – | – | 51 | – | – | – | – | –
3 | X2-Leu-Arg-kbt [1-(ethylsulfonyl)piperidin-4-yl Leu-Arg-kbt carbamate (8h)] | – | – | – | – | – | – | – | – | – | – | – | > 20000 | 10 | > 20000 | > 20000 | 730
4 | {phenyl(piperidin-4-yl)methyl carbamate}-Leu-Arg-kbt [phenyl(piperidin-4-yl)methyl Leu-Arg-kbt carbamate (11a)] | – | – | – | – | – | – | – | – | – | – | – | > 20000 | 8 | 14000 | > 20000 | 1100
